Laboratory results from publication PMC13138739, “Broadly conserved protective epitopes on the lyme disease vaccine antigen, OspA” (PLOS Pathogens, 2026).

Key:
[1] = molecular target: T1, Recombinant OspAST1 (residues 18–273) from B. burgdorferi B31 (Borrelia burgdorferi B31 (OspA ST1), UniProt P0CL66); experiment: BLI; Octet RED96e; mAb captured on AHC sensors (0.4 µg/mL, 5 min), dipped into non-lipidated OspA 21.58 nM to 0.089 nM (10 min), dissociation 30 min; 0.1% BSA in PBS, 0.01% Tween20; global 1:1 model; conditions: both partners purified
T1 construct: source: tags removed with TEV protease; not shown: deca-histidine, N-terminal, cleaved; SUMO, N-terminal, cleaved

[2] = molecular target: T2, OspA ST2 (B. afzelii PKo allele) on the B. burgdorferi HB19-R1 reporter strain (Borrelia afzelii PKo (OspA ST2), UniProt P0A3N7); experiment: flow cytometry on cells; live B. burgdorferi HB19-R1 reporter strains expressing OspA ST1-7, 10 µg/ml mAb, Alexa 647-labeled goat anti-human IgG; conditions: one partner purified
T2 construct: OspA of B. afzelii PKo (ST2); source: B. burgdorferi HB19-R1 (lacks ospA), reporter plasmid, native ospAB promoter of B31, on live cells

[3] = molecular target: T3, OspA ST4 (B. bavariensis PBi allele) on the B. burgdorferi HB19-R1 reporter strain (Borrelia bavariensis PBi (OspA ST4), UniProt Q6LBF1, strain); experiment: as above; conditions: one partner purified
T3 construct: OspA of B. bavariensis PBi (ST4); source: B. burgdorferi HB19-R1 (lacks ospA), reporter plasmid, native ospAB promoter of B31, on live cells

[4] = molecular target: OspA ST3 (B. garinii PBr allele) on the B. burgdorferi HB19-R1 reporter strain (Borrelia garinii PBr (OspA ST3), UniProt B8F1J0, strain); experiment: as above; conditions: one partner purified
[5] = molecular target: T4, OspA ST1 (B. burgdorferi B31 allele) on the B. burgdorferi HB19-R1 reporter strain (Borrelia burgdorferi B31 (OspA ST1), UniProt P0CL66); experiment: as above; conditions: one partner purified
T4 construct: OspA of B. burgdorferi B31 (ST1), lipoprotein on the cell surface; a second wild type ST1 plasmid with silent mutations was used beside the residue 107 mutants; same protein; also called HB19-R1 OspAST1 reporter; source: B. burgdorferi HB19-R1 (lacks ospA), reporter plasmid pGW217, native ospAB promoter, on live cells

[6] = molecular target: T5, Native OspA ST4 on B. bavariensis PBi (Borrelia bavariensis PBi (OspA ST4), UniProt Q6LBF1, strain); experiment: flow cytometry on cells; live Borrelia primary isolates with native OspA ST1-7, 10 µg/ml mAb, Alexa 647-labeled goat anti-human IgG; conditions: one partner purified
T5 construct: native OspA (ST4) on the bacterial surface of the primary isolate; also called ST 4- B. bavariensis PBi; source: endogenous, on live B. bavariensis PBi

[7] = molecular target: T6, Native OspA ST3 on B. garinii PBr (Borrelia garinii PBr (OspA ST3), UniProt B8F1J0, strain); experiment: as above; conditions: one partner purified
T6 construct: native OspA (ST3) on the bacterial surface of the primary isolate; also called ST 3- B. garinii PBr; source: endogenous, on live B. garinii PBr

[8] = molecular target: T7, Native OspA ST2 on B. afzelii Pko (Borrelia afzelii PKo (OspA ST2), UniProt P0A3N7); experiment: as above; conditions: one partner purified
T7 construct: native OspA (ST2) on the bacterial surface of the primary isolate; also called ST 2- B. afzelii Pko; source: endogenous, on live B. afzelii Pko

[9] = molecular target: T8, Recombinant non-lipidated OspA serotype 4 (Borrelia bavariensis (OspA ST4; strain …, UniProt Q6LBF1, strain); experiment: microsphere immunoassay (MIA); recombinant non-lipidated OspA ST 1-7 coupled to Magplex-C microspheres, serial dilutions of mAb, 1 x PBS, 2% BSA, pH 7.4, room temperature 1 hr, PE anti-human IgG Fc; conditions: both partners purified
T8 construct: OspA serotype 4, non-lipidated; also called recombinant OspA ST4; ST 4; source: E. coli, purified; provided by Dr. Meredith Finn (Moderna)

[10] = molecular target: T9, Recombinant non-lipidated OspA serotype 2 (Borrelia afzelii (OspA ST2; strain not …, UniProt P0A3N7); experiment: as above; conditions: both partners purified
T9 construct: OspA serotype 2, non-lipidated; also called recombinant OspA ST2; ST 2; source: E. coli, purified; provided by Dr. Meredith Finn (Moderna)
T9 sequence (P0A3N7 17-273): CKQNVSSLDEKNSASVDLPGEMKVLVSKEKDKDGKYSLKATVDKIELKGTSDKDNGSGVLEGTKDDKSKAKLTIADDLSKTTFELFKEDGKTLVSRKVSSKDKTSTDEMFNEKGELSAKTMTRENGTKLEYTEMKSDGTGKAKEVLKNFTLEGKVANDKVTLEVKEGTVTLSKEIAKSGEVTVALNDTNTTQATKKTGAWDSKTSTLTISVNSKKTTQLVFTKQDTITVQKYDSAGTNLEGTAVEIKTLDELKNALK

T4 sequence (P0CL66 17-273): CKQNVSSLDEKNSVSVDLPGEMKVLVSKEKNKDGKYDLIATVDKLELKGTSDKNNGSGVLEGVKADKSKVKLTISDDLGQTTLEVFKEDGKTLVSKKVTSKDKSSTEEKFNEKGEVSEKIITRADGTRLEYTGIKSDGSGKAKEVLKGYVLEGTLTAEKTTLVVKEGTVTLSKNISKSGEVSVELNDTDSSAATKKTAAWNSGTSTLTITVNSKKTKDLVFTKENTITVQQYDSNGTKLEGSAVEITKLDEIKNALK
T2 sequence (P0A3N7 17-273): as the sequence (P0A3N7 17-273) above
T1 sequence (P0CL66 18-273): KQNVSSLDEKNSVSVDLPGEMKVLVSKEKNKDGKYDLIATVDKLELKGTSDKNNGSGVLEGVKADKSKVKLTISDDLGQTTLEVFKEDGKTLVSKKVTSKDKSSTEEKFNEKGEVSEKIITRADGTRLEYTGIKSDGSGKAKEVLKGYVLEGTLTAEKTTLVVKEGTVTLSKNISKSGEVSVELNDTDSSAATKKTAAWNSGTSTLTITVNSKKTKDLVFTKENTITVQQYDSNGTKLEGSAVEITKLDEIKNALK
T7 sequence (P0A3N7 17-273): as the sequence (P0A3N7 17-273) above

Row | Binder | Kd [1] [nM] | MFI [2] | MFI [3] | MFI [4] | MFI [5] | binding result [2] | binding result [3] | binding result [4] | binding result [6] | binding result [7] | binding result [8] | binding result [9] | binding result [10]
1 | 221-5, recombinant human monoclonal IgG1 (antibody, V domains shown, source: Expi293 cells, transiently transfected with VH and VL plasmids, purified (Protein A)) VH: EVQLVQSGAEVKKPGESLKISCKGSGYSFTSYWIGWVRQMPGKGLEWMGIIYPGDSDTRYSPSFQGQVTISADKSISTAYLQWSSLKASDTAMYYCARHLGIDYFFGMDVWGQGTTVTVSS VL: EIVLTQSPATLSLSPGERATLSCRASQSVSSYLAWYQQKPGQAPRLLIYDASTRDTGIPARFSGSGSGTDFTLTISSLEPEDFAVYYCQHHSNWYTFGQGTKLEIK | 0.52 | > 4000 | > 4000 | > 4000 | > 4000 | – | – | – | – | – | – | – | –
2 | 221-20, recombinant human monoclonal IgG1 (antibody, V domains shown, source: Expi293 cells, transiently transfected with VH and VL plasmids, purified (Protein A)) VH: EIQLVQSGTEVKKPGESLRISCRVSGYSFTNYWVAWVRQMPGKGLEWMGIIWPGDSDTRYSPSFQGQVTISADKSINTAYLQWSSLKASDTAVYYCARHLGIDYFFGLDVWGQGTTVTVSS VL: EIVLTQSPATLSLSPGERATLSCRASQSVSSYLAWYQQKPGQAPRLLIYDASSRATGIPARFSGSGSGTDFTLTISSLEPEDFAVYYCQHLSNWYTFGQGTNLEIK | 0.37 | > 4000 | > 4000 | > 4000 | > 4000 | – | – | – | – | – | – | – | –
3 | LA-2 IgG (antibody, V domains shown, also called OspA ST 1-specific IgG mAb LA-2) VH: QIQLVQSGPELKKPGETVKISCKASGYTFTDYSMYWVKQAPGKGLKRMGWINTETGEPTYADDFKGRFALSLDTSASTAYLHISNLKNEDTATYFCARGLDSWGQGTSVTVSS VL: DIQMTQSPSSLSATLGGKVTITCKASQDINKYIAWYQHKPGKGPRLLIHYTSTLQPGNPSRFSGSGSGRDYSFSISNLEAEDIAIYYCLQYDNLQRTFGGGTKVEIK | 64 | – | – | – | > 7000 | no binding (tested: 10 µg/ml) | no binding (tested: 10 µg/ml) | no binding (tested: 10 µg/ml) | no binding (tested: 10 µg/ml) | no binding (tested: 10 µg/ml) | no binding (tested: 10 µg/ml) | – | –
4 | 227-1, recombinant human monoclonal IgG1 (antibody, V domains shown, source: Expi293 cells, transiently transfected with VH and VL plasmids, purified (Protein A)) VH: EVQLVQSGAEVKMPGESLKISCEVSGYSFTSYWIGWVRQMPGKGLEWMGIIYPGDSDTRYSPSFQGQVTISADKSISTAYLQWSSLKASDTAMYYCTRSISRSGPGFSLSWFFDYWGQGTLVTVSS VL: AIQLTQSPSSLSASVGDRVTITCRASQGISNALAWYQQKPGKAPKLLIYDASSLERGVPSRFSGSGFGTDFTLTISSLQPEDFAIYYCQQFNGFPNTFGQGTRVEIK | 1.7 | – | – | – | – | binds | binds | no binding | – | – | – | binds | binds
5 | 227-2, recombinant human monoclonal IgG1 (antibody, V domains shown, source: Expi293 cells, transiently transfected with VH and VL plasmids, purified (Protein A)) VH: EVQVVQSGAEVKKPGESLKISCKGSGYSFTSYWIGWVRQMPGKGLEWMGIIYPGDSDTRYSPSFQGQVTISADKSISTAYLQWSSLKASDTAMYYCVRSISRSGPGYILSWFFDYWGQGSLVTVSS VL: AIQLTQSPSSLSASVGDRVTITCRASQGISNALAWYQQKPGKAPKLLIYDASSLERGVPSRFSGSGFGTDFTLTISSLQPEDFAIYYCQQFNGFPNTFGQGTRVEIK | 0.48 | – | – | – | – | binds | binds | – | – | – | – | binds | binds
6 | 857-2, recombinant human monoclonal IgG1 (antibody, V domains shown, source: Expi293 cells, transiently transfected with VH and VL plasmids, purified (Protein A)) VH: EVQLVQSGEEVKKPGESLKISCKGSGYKFSSYWIGWVRQMPGKGLEWMGIIFPGDSDKRYSPSFQGQVTISADKSISTVYLQWSSLKASDTAMYYCARHITTHTYRGFFDFWGQGTLVTVSS VL: AIQLTQSPSSLSASVGDRVTITCRASQDISSALAWYQQKPGKAPKLLIYDVSSLESGVPSRFSGSGSGTDFTLTISSLQPEDFATYYCQQFNGYPHRLTFGGGTKVEIK | 0.3 | > 4000 | > 4000 | > 4000 | > 4000 | – | – | – | – | – | – | – | –
7 | 221-7, recombinant human monoclonal IgG1 (antibody, V domains shown, source: Expi293 cells, transiently transfected with VH and VL plasmids, purified (Protein A)) VH: EVQLVQSGSEVKKPGESLKISCQVSGYSFTSYWIGWVRQMPGKGLERVGFIYPGDSDTRYSPSFQGQVTISADKSISTAYLQWSSLKASDTAMYYCARGILRYFDWFLDYWGQGTLVTVSS VL: AIQLTQSPSSLSASVGDRVTITCRASQGISSGSAWYQQKPGKAPKLLIYDVSSLESGVPSRFSGSGSGTEFTLTISSLQPEDFATYYCQQFNSYLLTFGGGTKVEIK | 0.66 | – | – | – | – | – | – | – | – | – | – | – | –
8 | 221-11, recombinant human monoclonal IgG1 (antibody, V domains shown, source: Expi293 cells, transiently transfected with VH and VL plasmids, purified (Protein A)) VH: EVQLVQSGAEVKKPGESLKISCQSSGYRFTIYWIGWVRQMPGKGLEWMGIIWPGDSDTRYSPSFQGQVTISADKSISTAYLQWSSLKASDTAMYYCVRGIGRYSNWFLDYWGQGTLVTVSS VL: AIQLTQSPSSLSASVGDRVTITCRASQGFSSALAWYQQKPGKAPKLLIYDASSLESGVPSRFSGSGSGTDFTLTISSLQPEDFATYYCQQFNSYPLTFGGGTKVEIK | 0.35 | – | – | – | – | binds | binds | – | – | – | – | binds | binds
9 | 223-5, recombinant human monoclonal IgG1 (antibody, V domains shown, source: Expi293 cells, transiently transfected with VH and VL plasmids, purified (Protein A)) VH: EVQLVQSGAEVKKPGESLKISCKGSGYSLTSYWIGWVRQMPGKGLEWMGIIWPGDSDTRYSPSFQGQVTISADKSISTAYLQWSSLKASDTAMYYCARYVTVGAFDFWGQGTMVTVSS VL: AIQLTQSPSSLSASVGDRVTITCRASQGISSALAWYQQKPGKTPKLLIYDVSSLESGVPSRFSGSGCGTDFTLTISSVQPEDFATYYCQQFNSYLWTFGQGTKVEIK | 0.17 | – | – | – | – | – | – | – | – | – | – | – | –
